Experimental findings from publication PMC1287507, “Ankyrin-B Coordinates the Na/K ATPase, Na/Ca Exchanger, and InsP3 Receptor in a Cardiac T-Tubule/SR Microdomain” (PLoS Biology, 2005) are described below.

Experiment [1] concerns the target 220-kDa ankyrin-B (endogenous, mouse) (mouse (endogenous in mouse heart and brain)). In words: co-IP; detergent-soluble lysates of ankyrin-B+/- mouse heart, doubled amount of input lysate, compared with wild-type heart.
For experiment [2], the target named is InsP3R purified from bovine brain cerebellum (bovine, UniProt Q9TU34 1-2709, ^125I-labeled in the saturation binding; biotinylated with NHS-LC-biotin in the reconstitution). In words: radioligand binding; saturation binding: increasing concentrations of ^125I-labeled protein with glutathione Sepharose-immobilized GST-ankyrin-B membrane-binding domain, 2 h at 25 °C; binding to GST beads subtracted; Scatchard analysis. The conditions noted are these: both partners purified.

In turn, “Na/Ca exchanger 1 (endogenous, mouse) (from UniProt P70414 33-970) (natural protein)” displayed a loss of co-immunoprecipitation in ankyrin-B+/- heart against wild-type heart in experiment [1] of over 60%.

With “Na/K ATPase (endogenous, mouse; isoform not told) (from UniProt Q8VDN2 1-1023) (natural protein)”, the loss of co-immunoprecipitation in ankyrin-B+/- heart against wild-type heart in experiment [1] was over 60%.

“inositol 1,4,5-trisphosphate receptor (endogenous, mouse) (from UniProt P11881 1-2749)” came in with a loss of co-immunoprecipitation in ankyrin-B+/- heart against wild-type heart in experiment [1] of over 60%.

B1: GST-ankyrin-B membrane-binding domain (domain or fragment)
chain: KSDSNASFLRAARAGNLDKVVEYLKGGIDINTCNQNGLNALHLAAKEGHVGLVQELLGRGSSVDSATKKGNTALHIASLAGQAEVVKVLVKEGANINAQSQNGFTPLYMAAQENHIDVVKYLLENGANQSTATEDGFTPLAVALQQGHNQAVAILLENDTKGKVRLPALHIAARKDDTKSAALLLQNDHNADVQSKMMVNRTTESGFTPLHIAAHYGNVNVATLLLNRGAAVDFTARNGITPLHVASKRGNTNMVKLLLDRGGQIDAKTRDGLTPLHCAARSGHDQVVELLLERGAPLLARTKNGLSPLHMAAQGDHVECVKHLLQHKAPVDDVTLDYLTALHVAAHCGHYRVTKLLLDKRANPNARALNGFTPLHIACKKNRIKVMELLVKYGASIQAITESGLTPIHVAAFMGHLNIVLLLLQNGASPDVTNIRGETALHMAARAGQVEVVRCLLRNGALVDARAREEQTPLHIASRLGKTEIVQLLLQHMAHPDAATTNGYTPLHISAREGQVDVASVLLEAGAAHSLATKKGFTPLHVAAKYGSLDVAKLLLQRRAAADSAGKNGLTPLHVAAHYDNQKVALLLLEKGASPHATAKNGYTPLHIAAKKNQMQIASTLLNYGAETNIVTKQGVTPLHLASQEGHTDMVTLLLDKGANIHMSTKSGLTSLHLAAQEDKVNVADILTKHGADQDAHTKLGYTPLIVACHYGNVKMVNFLLKQGANVNAKTKNGYTPLHQAAQQGHTHIINVLLQHGAKPNATTANGNTALAIAKRLGYISVVDTLKVVTEEVTTTTTTITEKHKLNVPETMTEVLDVSDEEGDDTMTGDGGEYLRPEDLKELGDD
Broadly, the Kd is the free concentration of one partner at which half of the binding sites on the other are occupied at equilibrium, for simple one-to-one binding. High values mean lower affinity, low ones higher affinity. Turning to B1, in experiment [2], the Kd worked out at 3 nM. In other words, the single-digit nanomolar range.
